According to US20220010008A1:
Values belong to the binder of their own block, whether it stands above or below them.

Legend:
[1] = molecular target: recombinant human IL-5 protein (human) (UniProt P05113); assay: SPR, human IL-5 immobilized on chip, 1:1 fit
[2] = molecular target: recombinant human IL-5 protein (human) (UniProt P05113); assay: SPR, human IL-5 immobilized on CM5 chip, chimeric antibody as analyte, 1:1 global fit

Kd [1]: 0.0221 nM | koff [1]: 8.14e-06 s⁻¹ | kon [1]: 368000 M⁻¹ s⁻¹
B1: 69F2F3 (murine hybridoma lead antibody) (antibody, V domains shown)
VH: QVQLKQSGPGLVQPSQSLSITCTVSGFSLSNYGVHWVRQSPGKGLEWLGVIWSGGSTDYNAAFKSRLSITKDNSKSQVVFRMNSLQTDDTATYYCARNKDFLDYWGQGTKFTVSS
VL: DIVMTQSPSSLTVTAGEKVTMTCKSSQGLLNSGNQKNYLTWYQQKPGQPPKLLIYWASTRESGVPDRFTGSGSGTDFTLTISSVQAEDLAVYYCQNDYHFPLTFGAGTKLELK

Kd [2]: < 0.12 nM | koff [2]: < 1e-05 s⁻¹ | kon [2]: 81900 M⁻¹ s⁻¹
B2: 69F2F3 mouse-human chimeric antibody (antibody, human IgG4, V domains shown)
VH: B1 VH
VL: B1 VL

Kd [1]: 0.063 nM | koff [1]: 2.32e-05 s⁻¹ | kon [1]: 369000 M⁻¹ s⁻¹
B3: 102A2E11B6 (murine hybridoma lead antibody) (antibody, V domains shown)
VH: QVQLRQSGPGLVQPSQSLSITCTVSGFSLTSYGVHWVRQSPGKGLEWLGVIWSGGSTDYNAVFMSRLSISKDSSKSQVFFKMNSLQTDDTAIYYCARNRYVLDYWGQGTSVTVSS
VL: DIVMTQSPSSLSVSAGERVTMRCKSSQSLLTSGDQKNHLAWYQQKPGQPPKLLIYGASTRESGVPDRFTGSGSGTDFTLTITSVQAEDLAVYYCQNDHSFPLTFGAGTKLELK
